Consider three molecules from patent publication US20240109963A1 (AB THERAPEUTICS, published 2024).

Assay [1] concerns the target T1, full-length human Claudin 18.2 on MIA PaCa-2 cells (MIA PaCa-2+ Claudin 18.2) (human, UniProt P56856-2 1-261).
T1 sequence (looked up): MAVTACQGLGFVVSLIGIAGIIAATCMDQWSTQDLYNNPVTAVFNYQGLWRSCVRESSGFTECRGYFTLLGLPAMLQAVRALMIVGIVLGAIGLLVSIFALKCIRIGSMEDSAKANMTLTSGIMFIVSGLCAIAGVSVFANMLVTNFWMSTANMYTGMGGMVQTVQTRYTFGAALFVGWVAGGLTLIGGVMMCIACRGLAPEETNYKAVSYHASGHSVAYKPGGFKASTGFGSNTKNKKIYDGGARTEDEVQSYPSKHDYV
Put plainly: cell-based or functional assay.

Assay [2] has as its target T2, CD3 on Jurkat cells.
T2 construct: whole, on cells; also called CD3+ Jurkat cells
The experiment in a line: flow cytometry on Jurkat cells, CD3 binding (T cell) (summary table).

Assay [3] addresses T3, Claudin 18.2 on CHO cells (CHO+ Claudin 18.2) (UniProt P56856-2 1-261).
T3 construct: whole, on cells; also called CHO_18.2
T3 sequence (looked up): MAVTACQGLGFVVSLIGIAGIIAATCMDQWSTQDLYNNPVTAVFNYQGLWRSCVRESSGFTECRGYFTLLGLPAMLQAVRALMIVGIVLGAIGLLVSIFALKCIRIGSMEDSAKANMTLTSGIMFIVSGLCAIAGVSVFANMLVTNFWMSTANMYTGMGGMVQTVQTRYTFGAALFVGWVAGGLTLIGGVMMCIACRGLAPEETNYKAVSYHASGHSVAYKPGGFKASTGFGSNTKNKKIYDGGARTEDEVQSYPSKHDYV
The experiment in a line: flow cytometry, unpurified supernatant on CHO+ Claudin 18.2 cells, FITC-positive cells. The protocol: To compare the half maximal effective concentration (EC50) of the lead BsAbs, 8.5×10⁴ cells/well of CHO+ Claudin 18.2 cells in 100 μl FACS buffer were seeded in a V-bottom 96-well plate. […] The final concentrations of the BsAbs were 10 μg/ml, 1 μg/ml, 100 ng/ml, 10 ng/ml, 1 ng/ml, 100 pg/ml, 10 pg/ml, and 1 pg/ml. After incubating the plate at RT for 45 minutes, the cells were washed twice with the FACS buffer and cell pellets were resuspended in 100 μl FACS buffer containing goat anti-human-FITC (1:200) for 30 minutes at RT in dark. Afterwards, the cells were washed twice with FACS buffer, and cell pellets were resuspended in 120 μl FACS buffer. The percentage of FITC-positive cells were analyzed by flow cytometry.

T2 sequence (P07766 23-207, chain 1 of 3): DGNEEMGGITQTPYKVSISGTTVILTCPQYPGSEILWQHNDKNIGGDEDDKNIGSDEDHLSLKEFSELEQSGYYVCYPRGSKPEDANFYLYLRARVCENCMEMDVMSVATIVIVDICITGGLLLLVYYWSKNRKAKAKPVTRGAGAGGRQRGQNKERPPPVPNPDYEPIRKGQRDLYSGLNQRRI
T2 sequence (P09693 23-182, chain 2 of 3, further chain): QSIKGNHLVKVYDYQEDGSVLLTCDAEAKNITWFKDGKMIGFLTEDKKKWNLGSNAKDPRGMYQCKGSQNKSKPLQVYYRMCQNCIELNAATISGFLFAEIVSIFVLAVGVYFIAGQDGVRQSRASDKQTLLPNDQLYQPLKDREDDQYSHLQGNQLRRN
T2 sequence (P04234 22-171, chain 3 of 3, further chain): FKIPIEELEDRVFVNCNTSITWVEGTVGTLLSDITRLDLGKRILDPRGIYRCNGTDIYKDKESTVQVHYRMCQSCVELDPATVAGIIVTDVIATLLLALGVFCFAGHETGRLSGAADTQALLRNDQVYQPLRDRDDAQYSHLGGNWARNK

B1: Claudin 18.2-1B2/CD3 BsAb (BiSpecific-V1 structure) (bispecific antibody)
VHH-Fc: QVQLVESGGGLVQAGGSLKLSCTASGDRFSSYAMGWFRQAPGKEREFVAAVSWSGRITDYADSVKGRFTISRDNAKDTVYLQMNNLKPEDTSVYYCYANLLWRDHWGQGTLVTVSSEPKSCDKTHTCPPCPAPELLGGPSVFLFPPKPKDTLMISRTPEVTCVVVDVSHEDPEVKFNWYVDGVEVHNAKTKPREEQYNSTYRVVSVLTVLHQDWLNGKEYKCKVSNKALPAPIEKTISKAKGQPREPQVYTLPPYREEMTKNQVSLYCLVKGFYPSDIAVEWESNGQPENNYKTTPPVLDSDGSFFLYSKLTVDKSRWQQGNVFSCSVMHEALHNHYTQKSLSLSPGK
heavy: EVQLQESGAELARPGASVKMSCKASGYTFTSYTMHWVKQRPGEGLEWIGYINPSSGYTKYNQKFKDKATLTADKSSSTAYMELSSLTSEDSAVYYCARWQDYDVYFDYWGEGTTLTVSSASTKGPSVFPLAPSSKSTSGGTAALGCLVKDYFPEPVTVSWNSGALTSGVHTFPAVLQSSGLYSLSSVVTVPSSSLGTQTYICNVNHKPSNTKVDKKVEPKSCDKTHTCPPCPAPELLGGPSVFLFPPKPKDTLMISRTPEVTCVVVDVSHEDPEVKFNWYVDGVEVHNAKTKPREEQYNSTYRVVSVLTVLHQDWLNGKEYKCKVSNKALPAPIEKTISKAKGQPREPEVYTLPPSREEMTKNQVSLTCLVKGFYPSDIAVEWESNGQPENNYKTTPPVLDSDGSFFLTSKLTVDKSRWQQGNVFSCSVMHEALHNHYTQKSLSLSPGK
light: QIVLSQSPAILSASPGEKVTMTCRASSSVSYIHWFQQKPGSSPKPWIYATSNLASGVPVRFSGSGSGTSYSLTISRVEAEDAATYYCQQWTSNPPTFGGGTKLEIKRTVAAPSVFIFPPSDEQLKSGTASVVCLLNNFYPREAKVQWKVDNALQSGNSQESVTEQDSKDSTYSLSSTLTLSKADYEKHKVYACEVTHQGLSSPVTKSFNRGEC
Regarding B1, in assay [1], the “T cell activation EC50 (CD69-positive cells)” value amounted to 0.056 µg/mL. This molecule also returned an EC50 in assay [2] of 58.9 µg/mL.

B2: Claudin 18.2-4G1/CD3 BsAb (BiSpecific-V1 structure) (bispecific antibody)
VHH-Fc: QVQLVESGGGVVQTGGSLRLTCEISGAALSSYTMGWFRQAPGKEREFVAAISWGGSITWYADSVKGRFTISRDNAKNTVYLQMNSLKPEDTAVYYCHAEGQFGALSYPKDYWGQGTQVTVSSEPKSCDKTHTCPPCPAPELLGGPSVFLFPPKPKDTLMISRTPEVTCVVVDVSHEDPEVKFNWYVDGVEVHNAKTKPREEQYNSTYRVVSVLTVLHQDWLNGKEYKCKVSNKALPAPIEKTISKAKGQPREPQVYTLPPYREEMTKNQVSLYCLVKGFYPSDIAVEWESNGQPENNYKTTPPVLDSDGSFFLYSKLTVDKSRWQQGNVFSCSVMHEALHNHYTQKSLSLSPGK
heavy: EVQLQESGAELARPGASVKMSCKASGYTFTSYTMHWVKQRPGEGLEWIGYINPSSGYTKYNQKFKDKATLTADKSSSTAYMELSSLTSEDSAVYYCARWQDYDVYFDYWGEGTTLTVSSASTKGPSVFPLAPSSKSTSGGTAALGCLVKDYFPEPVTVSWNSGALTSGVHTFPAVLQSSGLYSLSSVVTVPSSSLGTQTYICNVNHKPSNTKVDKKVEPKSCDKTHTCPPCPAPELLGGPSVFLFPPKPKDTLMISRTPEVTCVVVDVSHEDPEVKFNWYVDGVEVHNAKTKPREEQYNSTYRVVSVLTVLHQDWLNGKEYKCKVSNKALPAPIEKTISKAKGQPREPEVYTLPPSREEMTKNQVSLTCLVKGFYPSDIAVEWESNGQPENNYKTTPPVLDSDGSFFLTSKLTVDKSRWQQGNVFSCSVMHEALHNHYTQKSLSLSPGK
light: QIVLSQSPAILSASPGEKVTMTCRASSSVSYIHWFQQKPGSSPKPWIYATSNLASGVPVRFSGSGSGTSYSLTISRVEAEDAATYYCQQWTSNPPTFGGGTKLEIKRTVAAPSVFIFPPSDEQLKSGTASVVCLLNNFYPREAKVQWKVDNALQSGNSQESVTEQDSKDSTYSLSSTLTLSKADYEKHKVYACEVTHQGLSSPVTKSFNRGEC
notes: tested as unpurified culture supernatant
Turning to B2, the EC50 in assay [3] is ~0.006 µg/mL.

B3: Claudin 18.2-3C2/CD3 BsAb (BiSpecific-V1 structure) (bispecific antibody)
VHH-Fc: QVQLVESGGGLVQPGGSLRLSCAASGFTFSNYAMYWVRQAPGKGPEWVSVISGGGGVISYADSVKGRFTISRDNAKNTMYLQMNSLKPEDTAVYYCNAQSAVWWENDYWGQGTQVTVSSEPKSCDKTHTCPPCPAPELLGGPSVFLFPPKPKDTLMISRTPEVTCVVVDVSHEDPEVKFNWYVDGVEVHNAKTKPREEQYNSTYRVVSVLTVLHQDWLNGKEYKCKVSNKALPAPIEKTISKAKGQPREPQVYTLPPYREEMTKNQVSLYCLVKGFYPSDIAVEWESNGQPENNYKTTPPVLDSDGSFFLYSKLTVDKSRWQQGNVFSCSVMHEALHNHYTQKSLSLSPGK
heavy: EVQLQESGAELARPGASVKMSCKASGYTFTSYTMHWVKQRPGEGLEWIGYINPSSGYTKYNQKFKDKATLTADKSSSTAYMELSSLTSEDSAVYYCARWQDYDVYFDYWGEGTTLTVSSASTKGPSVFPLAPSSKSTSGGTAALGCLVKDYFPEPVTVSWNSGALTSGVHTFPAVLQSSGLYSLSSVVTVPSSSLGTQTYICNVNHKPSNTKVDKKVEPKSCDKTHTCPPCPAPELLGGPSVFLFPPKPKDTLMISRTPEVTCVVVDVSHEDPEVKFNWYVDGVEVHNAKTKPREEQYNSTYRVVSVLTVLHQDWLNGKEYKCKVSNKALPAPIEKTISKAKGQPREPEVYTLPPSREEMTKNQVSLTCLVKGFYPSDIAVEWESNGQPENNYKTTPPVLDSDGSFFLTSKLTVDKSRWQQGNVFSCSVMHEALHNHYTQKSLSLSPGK
light: QIVLSQSPAILSASPGEKVTMTCRASSSVSYIHWFQQKPGSSPKPWIYATSNLASGVPVRFSGSGSGTSYSLTISRVEAEDAATYYCQQWTSNPPTFGGGTKLEIKRTVAAPSVFIFPPSDEQLKSGTASVVCLLNNFYPREAKVQWKVDNALQSGNSQESVTEQDSKDSTYSLSSTLTLSKADYEKHKVYACEVTHQGLSSPVTKSFNRGEC
notes: as for B2
As to B3, the EC50 in assay [3] was ~0.013 µg/mL.

By EC50 is commonly meant the midpoint of the concentration-response curve. Read a low EC50 as a more potent agent.
